From the supplement of paper PMC12042874 come the findings set out here.

A short description of the data set: amyloid nucleation score (Sup35N fusion, yeast selection) (log enrichment); library NNK1; higher = more nucleation; inactive = no reads after selection. The procedure, abridged: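 Psi-negative yeast expressed Sup35N fused to peptides of 20 random codons. They were induced 24 hours with 100 μM copper sulfate, grown 7 days at 30°C without adenine and uracil, and their plasmid inserts from input and output were Illumina-sequenced. The nucleation score is the DiMSum log enrichment of output over input reads, centred on the mode score of non-aggregating sequences. Sequences with under 100 input reads were excluded.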

± gives the uncertainty stated by the source.

As to NFFVDDSDRGQYKFDPFCCG, the amyloid nucleation score result was “inactive”.

In the case of FRDSTET, the amyloid nucleation score came to 0.495 ± 1.4.

HMNVPIDRSLGSFFFAKVMK returned an amyloid nucleation score of 0.867 ± 0.2.

The substance DRNYVGELTEFTGVMGRGRQ registered an amyloid nucleation score of -0.858 ± 1.1.

Consider TDRMGIQCGRVSLRSRYIRC, for which the amyloid nucleation score was -0.198 ± 0.87.

Turning to RQEVKAMGRFTATSLGTHSR, the amyloid nucleation score came out at 0.399 ± 0.47.

With ADDGCSRNVCQTLYMSFLVN, the amyloid nucleation score is -0.072 ± 0.35.

Substance VSCLNLIVSWYYANFGN came in with an amyloid nucleation score of -0.17 ± 0.32.

LYGLLAGIMSCHWLSWIACK returned an amyloid nucleation score of -0.96 ± 2.7.

As for FLLESL, the amyloid nucleation score result is “inactive”.

For YFSLFYCKVSGESTLYFCGH, the amyloid nucleation score was 5.88 ± 0.066.

Regarding NNAHRSVVWRYLVCFSCDFG, the amyloid nucleation score stood at 6.454 ± 0.064.

Regarding NLTHARGVSSVQRGVMSRTG, the amyloid nucleation score is -0.747 ± 0.6.

PMSKV: the amyloid nucleation score result was “inactive”.

In turn, SPFDKIVAHGSRLML displayed an amyloid nucleation score of -0.274 ± 0.64.

With GLGWHFTL, the amyloid nucleation score is -0.407 ± 0.28.

In turn, TEYISG gave an amyloid nucleation score of -0.026 ± 0.97.

CLGQDKLWNFVFTFLYLLQF yielded an amyloid nucleation score of -0.172 ± 0.48.

Turning to SNAPFRKAQQRGLYKWWSWR, the amyloid nucleation score was 0.728 ± 0.54.

Regarding IRKFLFLFNALLSAPLLFHK, the amyloid nucleation score is -0.2 ± 1.1.

In turn, ILSLS showed an amyloid nucleation score of 0.038 ± 0.18.

The substance YGLSSGFLYADLEDVPALLW had an amyloid nucleation score of 0.681 ± 0.45.

Regarding NFLMKWCEINTCLLVSFSYW, the amyloid nucleation score came out at 4.5 ± 0.071.

Substance NRLGLGPVSSICGR registered an amyloid nucleation score of -0.339 ± 0.81.

As to TGWEVV, the amyloid nucleation score was -1.16 ± 0.75.

For QPNNGVPQIMDTV, the amyloid nucleation score was 0.184 ± 0.43.

Regarding DCLSSGFLDTLYVVQVRGSD, the amyloid nucleation score result is “inactive”.

Regarding ERRDVRIYKSCGLGHVFYEG, the amyloid nucleation score stood at 4.91 ± 0.056.

Turning to CQVPGSRRHRRSIRERQNWN, the amyloid nucleation score was 1.32 ± 0.62.

RFSMFRQFRSDLGCFPIMVP came in with an amyloid nucleation score of 0.254 ± 0.72.

In turn, DTKNAWLILSTYLDNLFHIS had an amyloid nucleation score of 0.976 ± 0.33.

For MSSLIVYLRDAPRVLNLYVR, the amyloid nucleation score was determined as 2.5 ± 0.17.

For RFLSSALRARRYSRPVPLVM, the amyloid nucleation score was 1.13 ± 0.76.

On to AVCSMKKSVMYELNVGFTYR, for which the amyloid nucleation score result is “inactive”.

Substance SPVESQNSNNRLTIMDLIMR came in with an amyloid nucleation score of 0.574 ± 0.97.

VCLQW came in with an amyloid nucleation score of 0.386 ± 0.64.

For MSMVNKTSWCYLFCNLRVVY, the amyloid nucleation score was -1.08 ± 0.86.

In the case of SQVGYGSRDLEFTWWCGGNG, the amyloid nucleation score was -0.278 ± 0.58.

As for LFAIKYCDVSD, the amyloid nucleation score was 0.286 ± 0.43.

As to CNDISISFYMRTGACYWRVW, the amyloid nucleation score is -0.499 ± 0.46.

As for WFHSQVTQNYSVWLLSTNYS, the amyloid nucleation score is -0.091 ± 0.56.

Take KLGCYTL: the amyloid nucleation score is 0.367 ± 0.81.

Turning to KMRCDGLEQRLRSQSDLLAP, the amyloid nucleation score is 0.374 ± 0.45.

Consider VDVAVVDTNLSLNMACKGWT, for which the amyloid nucleation score stood at 1.21 ± 0.45.

Turning to CFSSNCMEFLSNVLYKNINP, the amyloid nucleation score came to 0.626 ± 0.78.

Take SYVYHPTSRLVWIIRMIT: the amyloid nucleation score came to 0.5 ± 0.38.

HGHENVDWQKITDIGGRENC showed an amyloid nucleation score of -0.715 ± 1.9.

As for RAVVW, the amyloid nucleation score amounted to 0.695 ± 0.8.

FGSSMLDFNLDFDKWCE: the amyloid nucleation score worked out at 3.66 ± 0.076.

In the case of MNLSYSTIVIYHRNEDCNVY, the amyloid nucleation score was found to be 4.08 ± 0.094.

In turn, YEKVSDQGNLGLASIYLAGK gave an amyloid nucleation score of -0.159 ± 0.22.

Take GVGRRMSMWYVCDAGWEAWR: the amyloid nucleation score is 3.16 ± 0.094.

Consider HSSDLRAFLTDTFSRFYRIG, for which the amyloid nucleation score was 0.911 ± 0.8.

Substance FELICNRNGNSPRYAFKKIP yielded an amyloid nucleation score of 0.976 ± 0.35.

As to YTVLEGGALCFLKELRHRIL, the amyloid nucleation score was -0.146 ± 0.32.

In the case of ACDTS, the amyloid nucleation score turned out to be 0.693 ± 0.45.

On to IGCKCDIFVCNCISVCYVGA, for which the amyloid nucleation score stood at 4.3 ± 0.16.

The substance TLTDSN returned an amyloid nucleation score of -0.221 ± 0.53.

YVMDMIYFYDGLVWSCLCWI: the amyloid nucleation score result is “inactive”.

As for LGRKFT, the amyloid nucleation score turned out to be 2.05 ± 0.41.

KWSVSV gave an amyloid nucleation score of -0.32 ± 1.3.

As to LSKGRATVYF, the amyloid nucleation score came out at 2.06 ± 0.23.

As to QGLSYFDCSDWLNYLFFKSY, the amyloid nucleation score was 0.126 ± 0.27.

Consider STRSLSCLFLNRTSHCLGTL, for which the amyloid nucleation score was -0.721 ± 1.4.

For KDVFPILGFCSAYLPYAWSA, the amyloid nucleation score is -0.474 ± 0.29.

Regarding VCLPSGLFINLGVWYAAQHH, the amyloid nucleation score was determined as 6.51 ± 0.069.

Consider VKSRYLFRCSLLFEHDTGIC, for which the amyloid nucleation score stood at 0.01 ± 0.23.

LDQKTFWLSVPVSWQIPADM gave an amyloid nucleation score of 0.477 ± 0.61.

With VLIMYYGCLDDFLLRDYSLL, the amyloid nucleation score stood at 0.856 ± 0.67.

STRHPTKNR yielded an amyloid nucleation score of 0.823 ± 0.21.

GYRHRYQQTKGIVTHSMYFD came in with an amyloid nucleation score of 1.27 ± 0.9.

CCPDSQIIRYNIYAVVYLRM registered an amyloid nucleation score of 1.92 ± 0.57.

GFMIICN showed an amyloid nucleation score of -0.405 ± 0.88.

Consider SSGFYLWCALYRSRGHCNDY, for which the amyloid nucleation score was 1.6 ± 0.18.

Substance FNWMRP showed an amyloid nucleation score of 0.706 ± 0.31.

PWCQVRHSSYRASWSSVVVN: the amyloid nucleation score is -0.254 ± 0.48.

The substance RVVWVVFGWGLIHLGGLLCG showed an amyloid nucleation score of 0.146 ± 0.81.

Regarding NSVVRVIKRSWRTVVLLHDR, the amyloid nucleation score is -0.621 ± 1.4.

On to NWMCKHSVGP, for which the amyloid nucleation score was 0.665 ± 0.72.

For NHHLRPEMQEVCHL, the amyloid nucleation score is 0.482 ± 0.67.

Take DFHTITGMANFTLSLCYSHK: the amyloid nucleation score is -0.945 ± 1.4.

Turning to FCFMWGYMVRVIV, the amyloid nucleation score result is “inactive”.

For the substance SWALRWYPELIET, the amyloid nucleation score came out at 0.076 ± 0.29.

Consider QCRERLYPHPGLI, for which the amyloid nucleation score came out at 1.01 ± 0.37.

As for VLRNDTMGAGANF, the amyloid nucleation score was -1.3 ± 0.39.

In the case of YGPSNYTIAQSS, the amyloid nucleation score was -0.234 ± 0.43.

Substance IHLIDLTRVSAG came in with an amyloid nucleation score of 0.627 ± 0.63.

TSFFFHEQHHFKGNKFNFEV: the amyloid nucleation score is 3.5 ± 0.18.

In turn, WFGLQYMSWVSIESYGQAAW returned an amyloid nucleation score of 0.875 ± 0.97.

IVSTMCPRTDGVPCDNF yielded an amyloid nucleation score of -0.035 ± 0.36.

SGHNSLGFISGIAINIFYRE gave an amyloid nucleation score of 7.537 ± 0.069.

In turn, CSAYGKNTMGSESPVMSMAS registered an amyloid nucleation score of 0.368 ± 0.72.

Substance VWTMIYSTCGSDFYFCSVEL came in with an amyloid nucleation score of 0.715 ± 0.47.

For LTLFEPLMRDCYICSYFNFF, the amyloid nucleation score was found to be 7.047 ± 0.053.

SRLSQDPRTSSAIMSWLRYS: the amyloid nucleation score was found to be 0.886 ± 1.1.

For DTINAGWSHLEARCLRFLHV, the amyloid nucleation score is -0.795 ± 0.38.

The substance SYVKDNISVSGADILTGAIC came in with an amyloid nucleation score of -0.367 ± 0.48.

GVRAVLFETWCRN displayed an amyloid nucleation score of -0.693 ± 1.

As for VCFVFMS, the amyloid nucleation score is -0.211 ± 0.41.

Turning to RTSPN, the amyloid nucleation score is -0.141 ± 0.37.

As for MFFSCGVLTILNWIKLKMAR, the amyloid nucleation score is -0.839 ± 1.1.

CKNNGGKDMSVMI gave an amyloid nucleation score of 1.14 ± 0.49.

As to VVLPGYMLNGFPNESNLIWP, the amyloid nucleation score was -1.22 ± 0.49.

As to KRCSFWQTRTVELSFGHPVL, the amyloid nucleation score was -1.23 ± 2.7.

Take QLELWVSLRCISWLQILRIL: the amyloid nucleation score came out at 1.06 ± 0.53.

On to VMYVPPMACSLS, for which the amyloid nucleation score was -0.315 ± 0.77.

LGCSFR: the amyloid nucleation score is -0.065 ± 1.4.

Substance ANFAIFWSFYRGWCSFKIQS showed an amyloid nucleation score of 0.871 ± 0.5.

Substance RFLVFPRFCCTRNKPRSETL had an amyloid nucleation score of 0.616 ± 1.2.

Regarding KWDLRPYFFLMVLEQGCSMW, the amyloid nucleation score was -0.506 ± 1.

LYHRGVFELCS came in with an amyloid nucleation score of 0.596 ± 0.34.

Substance FTQKIFQTFFDHAYNWFSRV returned an amyloid nucleation score of 0.918 ± 0.46.

The substance VFIQMGHELDFQCEE gave an amyloid nucleation score of 0.527 ± 0.63.

GPFSDVAGQKVRCGRLVATR displayed an amyloid nucleation score of -0.212 ± 0.66.

LLGASLNVKPESDFLLPAKR displayed an amyloid nucleation score of 0.175 ± 0.41.

Regarding NRKAPFNQA, the amyloid nucleation score was -1.09 ± 1.4.

For PACFSGCEVGFASDMCVLEL, the amyloid nucleation score was found to be 0.947 ± 0.42.

As to ISFLFMCYLWQGNNS, the amyloid nucleation score worked out at 6.24 ± 0.066.

GGQRWELLFLTRGPGRRWQG showed an amyloid nucleation score of 0.2 ± 1.2.

Consider RGYLAWLSGDQA, for which the amyloid nucleation score is 1.68 ± 0.52.

The substance YSIDLIPYRDYGNKTCHGIM came in with an amyloid nucleation score of 2.27 ± 0.081.

TMCCTLDARRLLLSMADFYC returned an amyloid nucleation score of 5.42 ± 0.072.

Consider IFRMAPKQCPSLWVASPHWI, for which the amyloid nucleation score was 0.743 ± 0.55.

Substance ADLSISRWCLCGRNALGLFF came in with an amyloid nucleation score of 5.12 ± 0.07.

As to MCVGRDISGEWSYYQCMVEL, the amyloid nucleation score came out at 0.495 ± 0.28.

Substance LVMFEIKLMRFNFTMRSVRR came in with an amyloid nucleation score of 2.91 ± 0.13.

Substance SGPRRQIDAIMFRGL registered an amyloid nucleation score of -0.086 ± 1.2.

For the substance KSESDL, the amyloid nucleation score result is “inactive”.

Substance FIYFYGRYNSSGDPFQVFLG displayed an amyloid nucleation score of -0.578 ± 0.34.

IDVFEITSKSFAARGAQFVH: the amyloid nucleation score is -1.97 ± 1.3.

In turn, NGNLKRSSEVFHCFGISLEF came in with an amyloid nucleation score of 0.694 ± 0.36.

PAVAGEWNARMGWEATRYKA displayed an amyloid nucleation score of 0.669 ± 0.56.

For YTINPRKIRGTPPPIPCRVQ, the amyloid nucleation score came to 0.16 ± 0.73.

In the case of RLTYSSCSGNLWYFRFKSVE, the amyloid nucleation score came to 0.415 ± 0.67.

TSYPSYVDFW yielded an amyloid nucleation score of 0.209 ± 0.58.

GTFVEISRYIDGCHLVFGNR yielded an amyloid nucleation score of 2.38 ± 0.16.

The substance SFYYWHPIALVSMVYK yielded an amyloid nucleation score of 5.89 ± 0.073.

Regarding CTVRFIYRKLN, the amyloid nucleation score was -0.325 ± 0.33.

SLNAMFIFLLAYKRGVYEYM had an amyloid nucleation score of 1.25 ± 0.24.

As to ASRRSSHHSGRMHRAQLSGF, the amyloid nucleation score is -1.5 ± 1.8.
